US20250340630A1 (SICHUAN KELUN BIOTECH BIOPHARMACEUTICAL, published 2025)
Numbering of substitutions follows the chain as printed. Read-outs that look alike come from different tables or passages of the source. Values belong to the binder of their own block, whether it stands above or below them.

How the values were obtained:
human Claudin18.2 [1] = molecular target: T1, human Claudin18.2 (human, UniProt P56856-2 1-261); assay: cell-based or functional assay
human Claudin18.2 [2] = molecular target: T1, human Claudin18.2; assay: cell-based or functional assay; remark: listed apart in the source
human Claudin18.2 [3] = molecular target: T1, human Claudin18.2; assay: cellular ELISA on fixed L929-Claudin 18.2 cells
Protocol: (§1) Human Claudin18.2 is a four transmembrane protein and has a complex structure. Cellular ELISA was thus carried out to maintain the structure of Claudin18.2. […] The cells were resuspended and adjusted to 2×10⁵/mL and 100 μL of the resuspension was plated into 96 well plate and incubated overnight at 37° C. The next day, the media was removed, and the plate was washed with PBS once. 100 μL/well 4% formaldehyde was added to the plate. After 30 min of incubation at room temperature, formaldehyde was removed, followed by washing twice with PBS. Blocking buffer (PBS containing 2% BSA) was then added to the plate at 100 μL/well, and incubated at 37° C. for 2 h. After removal of blocking buffer, 100 μL/well of serially diluted antibodies (starting from 1 μM, with 4-fold dilution, for a total of 11 concentrations) were added to the corresponding wells, which were incubated at 37° C. for 2h afterwards. The plate was washed with 250 μL PBST for 5 times, and was allowed to stand for 2 min each time. […] The plate was incubated at 37° C. for 1 h and washed with 250 μL PBST 6 times, wherein the plate was allowed to stand for 2 min each time. 100 μL/well of TMB solution (Thermo, 34029) was added. […] The absorbance at 450 nm was read on a plate reader (MD, SpectraMax M2) and the results were subjected to curve fitting by Graphpad Prism.

human Claudin18.2 [4] = molecular target: T1, human Claudin18.2; assay: flow cytometry on Ba/F3-Claudin18.2 cells
human Claudin18.2 [5] = molecular target: T1, human Claudin18.2; assay: flow cytometry on HEK293T-Claudin 18.2 cells
Protocol: HEK293T-Claudin 18.2 cells were detached and centrifuged, followed by washing for twice with PBS. And then the cells were resuspended in PBS containing 1% BSA and were plated into 96-well tip bottom plate at 300000 cells per well in a volume of 50 μl for 20 wells in total. […] Human IgG was served as negative control. The reactions were mixed well and incubated for 1 h at 4° C. in the dark. Following by three times of washing with PBS, the FITC-labelled anti-human Fc secondary antibody (Biolegend, 409322) was added and incubated for 0.5h in the dark. Detection was performed by flow cytometry (Beckman, Cytoflex) after washing for three times with PBS.

human Claudin18.2 [6] = molecular target: T1, human Claudin18.2; assay: cellular ELISA on fixed L929-Claudin 18.2 cells; remark: listed apart in the source
Protocol: as §1

human Claudin18.2 [7] = molecular target: T1, human Claudin18.2; assay: cell-based or functional assay; remark: listed apart in the source
human Claudin18.2 [8] = molecular target: T1, human Claudin18.2; assay: cell-based or functional assay; remark: listed apart in the source
human Claudin18.2 [9] = molecular target: T1, human Claudin18.2; assay: cellular ELISA on NUGC-4 cells (endogenous human Claudin18.2)
Protocol: The cells were resuspended and adjusted to 2×10⁵/mL and 100 μL of the resuspension was plated into 96 well plate and incubated overnight at 37° C. The next day, the media was removed, and the plate was washed with PBS once. 100 μL/well 4% formaldehyde was added to the plate. After 30 min of incubation at room temperature, formaldehyde was removed, followed by washing twice with PBS. Blocking buffer (PBS containing 2% BSA) was then added to the plate at 100 μL/well, and incubated at 37° C. for 2 h. After removal of blocking buffer, 100 μL/well of serially diluted antibodies (starting from 1 μM, with 4-fold dilution, for a total of 11 concentrations) were added to the corresponding wells, which were incubated at 37° C. for 2h afterwards. The plate was washed with 250 μL PBST for 5 times, and was allowed to stand for 2 min each time. […] The plate was incubated at 37° C. for 1 h and washed with 250 μL PBST 6 times, wherein the plate was allowed to stand for 2 min each time. 100 μL/well of TMB solution (Thermo, 34029) was added. The reactions were incubated at 37° C. for 20 min and stopped with 50 μL 2 mol/L H₂SO₄. The absorbance at 450 nm was read on a plate reader (MD, SpectraMax M2) and the results were subjected to curve fitting by Graphpad Prism.

human Claudin18.2 [10] = molecular target: T1, human Claudin18.2; assay: flow cytometry on Ba/F3-Claudin18.2 cells, purified mouse antibody
Protocol: (§2) The affinity of the candidates to Claudin18.2 was measured using FACS. […] Ba/F3-Claudin18.1 and Ba/F3-Claudin18.2 cells were incubated with the purified mouse antibodies at various concentrations on ice for 30 min and mouse IgG was used as negative control (Thermo Fisher, Cat: 31903), followed by washing with FACS buffer (PBS+2% FBS) twice.

human Claudin18.1 [11] = molecular target: T2, human Claudin18.1 (human, UniProt P56856 1-261); assay: FACS titration on Ba/F3-Claudin 18.1 cells
T2 construct: whole, on cells; Presented on transfected cells; also called CLDN18.1
Protocol: as §2

human Claudin18.1 [12] = molecular target: T2, human Claudin18.1; assay: flow cytometry on Ba/F3-Claudin18.1 cells
Protocol: as §2

B1: IMAB362 (antibody, V domains shown)
VH: QVQLQQPGAELVRPGASVKLSCKASGYTFTSYWINWVKQRPGQGLEWIGNIYPSDSYTNYNQKFKDKATLTVDKSSSTAYMQLSSPTSEDSAVYYCTRSWRGNSFDYWGQGTTLTVSS
VL: DIVMTQSPSSLTVTAGEKVTMSCKSSQSLLNSGNQKNYLTWYQQKPGQPPKLLIYWASTRESGVPDRFTGSGSGTDFTLTISSVQAEDLAVYYCQNDYSYPFTFGSGTKLEIKR
CDC EC50 on HEK293T-Claudin 18.2 cells (guinea pig serum, CellTiter-Glo) (human Claudin18.2 [1]): 3.32 µg/mL | ADCC EC50 on HEK293T-Claudin 18.2 cells (NK92MI-CD16a, LDH) (human Claudin18.2 [2]): 0.0577 µg/mL | EC50 (human Claudin18.2 [3]): 0.15 nM | EC50 (human Claudin18.2 [4]): 18 nM | EC50 (human Claudin18.2 [5]): 8.22 nM | EC50 (human Claudin18.2 [6]): 0.18 nM | ADCC EC50, Ba/F3-Claudin18.2 target cells, NK-92MI_mCD16 effectors (human Claudin18.2 [7]): 0.351 µg/mL | ADCC Max killing rate %, Ba/F3-Claudin18.2 target cells (human Claudin18.2 [7]): 54.2% | ADCC EC50 on HEK293T-Claudin 18.2 cells (NK92MI-CD16a, LDH) (human Claudin18.2 [8]): 0.0336 µg/mL | ADCC EC50 on KATOIII-Claudin 18.2 cells (NK92MI-CD16a, LDH) (human Claudin18.2 [8]): 0.0101 µg/mL | ADCC EC50 on L929-Claudin 18.2 cells (NK92MI-CD16a, LDH) (human Claudin18.2 [8]): 0.0781 µg/mL | ADCC EC50 on NUGC-4 cells (NK92MI-CD16a, LDH) (human Claudin18.2 [8]): 1.22 µg/mL | EC50 (human Claudin18.2 [9]): ~664 nM

B3: mouse antibody 2C6.9 (antibody, V domains shown)
VH: QVQLKESGPGLVAPSQSLSITCTVSGFSLTRYGVSWVRQPPGKGLEWLGVIWGDGNTNFHSFLKSRLSISKDSSKSQVFLKLNSLQTDDTATYYCARVNFGNALDYWGQGTSVTVSS
VL: DIVMTQSPSSLTVTAGEEVTMSCKSSQSLLNSGNQKNYLTWYQQKPGQPPKLLIYWASTRDSGVPDRFTGSGSGTDFTLTISSVQSEDLAVYYCQNDFIFPLTFGAGTKLELK
notes: Purified from hybridoma; also called 2C6.9.2
EC50 (human Claudin18.2 [10]): 10.6 nM | Max MFI (human Claudin18.2 [10]): 6.11e+06 MFI | binding result (human Claudin18.1 [12]): no binding

The next lines start with the values.

EC50 (human Claudin18.2 [10]): 10.9 nM | Max MFI (human Claudin18.2 [10]): 6.01e+06 MFI | binding result (human Claudin18.1 [11]): no binding (tested: about 50 nM)
B2: mouse antibody 19H11.6 (antibody, V domains shown)
VH: EVMLVESGGGLVKPGGSLKLSCAASGFSFSNSAMSWVRQTPEKRLEGVATISSGDSFTYYPDTVKGRFTISRDNAKNSLYLQMSRLRSEDTAVYYCARQGYGNALDYWGQGTSVTVSS
VL: B3 VL with E18K, S22T, A57S, D61E, S86A, F98Y, I99Y, F100Y
notes: Purified from hybridoma

EC50 (human Claudin18.2 [10]): 9.4 nM | Max MFI (human Claudin18.2 [10]): 4.97e+06 MFI | binding result (human Claudin18.1 [11]): no binding (tested: about 50 nM)
B4: mouse antibody 9C8.1 (antibody, V domains shown)
VH: QVQLQQSGAELVRPGSSVKISCKASGYAFSNYWMNWVKQRPGQGLEWIGQIYPGDGDTNYNGKFKGKATLTTDKSSSTAYMQLSSLTSEDSAVYFCARLYYGNSFAYWGQGTLVTVSS
VL: DIVMTQSPSSLTVTAGEKVTVSCKSSQSLLNSGNQKNYLTWYQQKPGQPPKLLIYWASTRESGVPDRFTGSGSGTDFTLTISSVQAADLAIYYCQNDYFYPFTFGGGTKLEIK
notes: Purified from hybridoma
